Data reported in the supplement of paper PMC10567573.

B1: MIA2 (parent)
chain: DMVSNIELPTRIHEEVYFEPSSSK

Variants of: B1
Experiment: protein stability index of a GFP-peptide fusion (GPS, HEK-293T) (PSI 1-6); higher = more stable
Conditions: c terminus: a fixed tail appended
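Also: lentivirally expressed fusions sorted by FACS into six bins by GFP to DsRed ratio, PSI derived from sequencing read proportions per bin multiplied by bin number.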

In order of falling protein stability index:
1. M2D  5.43
2. F18D  5.29
3. I6E  5.27
4. M2E  5.23
5. L8E  5.22
6. M2A  5.19
7. M2P  5.15
8. F18Q  5.12
9. M2T  5.12
10. N5P  5.11
11. M2N  5.1
12. M2S  5.02
13. V16E  5.02
14. Y17R  5.01
15. M2Q  5.01
16. M2C  4.99
17. Y17P  4.97
18. Y17E  4.95
19. I6C  4.91
20. I6D  4.86
21. R11G  4.86
22. I12D  4.79
23. M2G  4.78
24. I6N  4.77
25. V16D  4.77
26. F18Y  4.76
27. L8G  4.74
28. T10D  4.74
29. R11A  4.7
30. F18N  4.68
31. F18E  4.68
32. I6K  4.68
33. V3E  4.65
34. F18H  4.64
35. F18G  4.63
36. F18T  4.63
37. F18S  4.62
38. N5D  4.56
39. L8H  4.56
40. V3R  4.56
41. L8D  4.54
42. L8Q  4.53
43. F18I  4.52
44. Y17C  4.52
45. I6G  4.52
46. I6A  4.51
47. I12S  4.51
48. F18L  4.5
49. L8S  4.5
50. R11E  4.5
51. R11D  4.49
52. S4E  4.48
53. F18M  4.48
54. I6T  4.48
55. M2H  4.48
56. N5T  4.47
57. L8F  4.47
58. Y17G  4.47
59. T10H  4.47
60. V16N  4.47
61. N5S  4.46
62. L8A  4.46
63. E15D  4.45
64. H13E  4.44
65. L8N  4.44
66. T10Q  4.44
67. N5K  4.43
68. R11Q  4.42
69. Y17D  4.41
70. L8P  4.4
71. I6P  4.4
72. I12G  4.39
73. R11N  4.39
74. N5W  4.38
75. Y17F  4.35
76. S4P  4.34
77. I6H  4.34
78. N5Q  4.33
79. I12E  4.33
80. V16C  4.33
81. H13P  4.32
82. Y17N  4.32
83. I6M  4.32
84. N5H  4.3
85. Y17V  4.3
86. S4H  4.29
87. Y17H  4.29
88. Y17L  4.29
89. F18R  4.28
90. Y17T  4.28
91. Y17K  4.27
92. R11T  4.27
93. V3I  4.26
94. V3S  4.26
95. Y17Q  4.26
96. V16A  4.26
97. I12V  4.25
98. F18P  4.23
99. V3G  4.23
100. T10A  4.23
101. L8W  4.22
102. P9E  4.21
103. Y17W  4.21
104. H13N  4.19
105. I6Q  4.19
106. N5E  4.18
107. I6V  4.18
108. I12A  4.18
109. M2R  4.18
110. I6L  4.16
111. R11M  4.16
112. V16G  4.16
113. N5A  4.14
114. R11V  4.14
115. L8V  4.13
116. T10S  4.13
117. F18A  4.12
118. V16P  4.12
119. I12Q  4.11
120. T10L  4.11
121. V3P  4.1
122. V3M  4.09
123. R11P  4.09
124. V16L  4.09
125. P9Q  4.08
126. I6F  4.08
127. S4K  4.07
128. I6S  4.07
129. R11S  4.07
130. P9N  4.06
131. Y17S  4.06
132. H13G  4.05
133. V16T  4.05
134. N5C  4.04
135. L8I  4.04
136. S4N  4.03
137. I6Y  4.03
138. L8C  4.02
139. V3Q  4.02
140. V3K  4.02
141. V16S  4.02
142. V16Q  4.02
143. S4Y  4.01
144. T10E  4.01
145. H13A  4
146. L8T  4
147. T10P  4
148. N5M  3.99
149. H13L  3.99
150. S4D  3.98
151. E7H  3.98
152. I12T  3.98
153. S4A  3.97
154. S4R  3.97
155. V3C  3.97
156. N5F  3.95
157. Y17I  3.94
158. R11L  3.94
159. T10I  3.94
160. N5R  3.92
161. E15T  3.9
162. V3D  3.89
163. P9K  3.89
164. I12L  3.89
165. V16K  3.89
166. V3Y  3.87
167. I12Y  3.87
168. V16F  3.87
169. V16I  3.87
170. N5I  3.86
171. V3N  3.86
172. I12P  3.86
173. T10F  3.86
174. N5G  3.84
175. H13Q  3.84
176. I6R  3.84
177. E15G  3.84
178. L8K  3.83
179. E7D  3.83
180. T10Y  3.83
181. T10G  3.83
182. S4G  3.82
183. E14N  3.82
184. H13F  3.81
185. T10M  3.81
186. F18V  3.8
187. H13R  3.8
188. V3A  3.79
189. R11K  3.77
190. S4T  3.73
191. V3F  3.73
192. Y17M  3.73
193. V16W  3.73
194. M2Y  3.72
195. M2L  3.7
196. P9T  3.69
197. I12N  3.69
198. Y17A  3.67
199. P9L  3.65
200. E7A  3.65
201. T10V  3.65
202. H13K  3.64
203. L8R  3.64
204. I12K  3.64
205. M2V  3.64
206. E15H  3.63
207. E19L  3.63
208. T10R  3.63
209. H13V  3.62
210. R11C  3.62
211. M2I  3.62
212. T10N  3.61
213. P9R  3.6
214. I12M  3.6
215. F18C  3.59
216. H13D  3.59
217. E14D  3.59
218. E7F  3.59
219. I12W  3.59
220. E7G  3.58
221. R11I  3.58
222. H13Y  3.57
223. I12F  3.57
224. V3H  3.56
225. M2K  3.55
226. V16H  3.55
227. E15S  3.54
228. E19K  3.54
229. V3L  3.53
230. P9C  3.53
231. P9G  3.53
232. E7V  3.53
233. E19A  3.53
234. S4Q  3.52
235. F18W  3.52
236. L8Y  3.52
237. E15K  3.52
238. R11W  3.52
239. S4M  3.51
240. F18K  3.51
241. E14A  3.51
242. N5V  3.5
243. P9H  3.5
244. V16Y  3.49
245. L8M  3.46
246. P9A  3.46
247. P9D  3.46
248. V16M  3.46
249. S4C  3.44
250. E15Q  3.44
251. E14Q  3.43
252. R11H  3.43
253. D1Y  3.42
254. H13I  3.42
255. I12H  3.42
256. R11F  3.42
257. P9Y  3.41
258. E19N  3.41
259. T10K  3.4
260. E19D  3.38
261. H13C  3.37
262. E14K  3.36
263. P9M  3.35
264. E15A  3.35
265. E7P  3.34
266. S4V  3.33
267. H13S  3.33
268. E7R  3.33
269. E7C  3.32
270. I6W  3.32
271. P9S  3.31
272. E19M  3.31
273. P9I  3.3
274. E14S  3.29
275. E7M  3.29
276. E15N  3.29
277. E14H  3.28
278. E14G  3.28
279. M2F  3.28
280. E15L  3.27
281. T10W  3.27
282. R11Y  3.26
283. E15Y  3.22
284. I12C  3.22
285. N5L  3.19
286. V16R  3.17
287. E14P  3.16
288. E7L  3.16
289. H13W  3.15
290. V3W  3.15
291. E19H  3.14
292. S4L  3.12
293. E19G  3.09
294. E14T  3.07
295. I12R  3.06
296. V3T  3.04
297. E7K  3.03
298. H13T  3.02
299. H13M  3.02
300. E7S  3.02
301. P9F  3.01
302. E14R  2.98
303. P9W  2.98
304. E15C  2.97
305. E15P  2.96
306. E15R  2.96
307. E19C  2.96
308. P9V  2.94
309. E7Q  2.9
310. E14W  2.88
311. E7I  2.88
312. E19F  2.86
313. E7N  2.85
314. M2W  2.8
315. E7T  2.78
316. E15W  2.75
317. E15M  2.72
318. E7W  2.64
319. E19I  2.64
320. D1W  2.63
321. E15F  2.62
322. S4W  2.6
323. E15V  2.6
324. E14M  2.58
325. N5Y  2.46
326. E14F  2.46
327. S4F  2.35
328. E15I  2.28
329. E7Y  2.11
330. E14L  2.04
331. S4I  1.93
332. E14C  1.91
333. E14Y  1.86
334. T10C  1.67
